According to patent publication US20220251236A1 (Boehringer Ingelheim, published 2022):

Assays:
Cyno DLL3-His [1] = target: T1, Cyno DLL3-His (cynomolgus monkey, UniProt Q9NYJ7 27-492 (human entry)); test: SPR; ratio of the KD values for human and cyno DLL3
T1 construct: also called cy DLL3; recombinant cyno DLL3-ECD
T1 chain: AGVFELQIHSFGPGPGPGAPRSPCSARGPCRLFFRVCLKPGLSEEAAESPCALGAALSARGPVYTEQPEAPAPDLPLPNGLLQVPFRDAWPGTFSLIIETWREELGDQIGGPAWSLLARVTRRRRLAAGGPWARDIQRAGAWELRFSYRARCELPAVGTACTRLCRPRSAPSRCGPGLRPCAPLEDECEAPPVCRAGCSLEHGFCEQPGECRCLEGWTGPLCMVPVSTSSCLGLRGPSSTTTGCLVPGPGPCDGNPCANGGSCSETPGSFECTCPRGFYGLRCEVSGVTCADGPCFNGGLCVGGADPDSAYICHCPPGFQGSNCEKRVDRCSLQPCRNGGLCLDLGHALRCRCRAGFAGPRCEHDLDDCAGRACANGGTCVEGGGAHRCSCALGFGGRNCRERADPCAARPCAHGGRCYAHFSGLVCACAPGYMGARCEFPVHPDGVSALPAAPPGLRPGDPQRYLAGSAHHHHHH
Protocol: (§1) The binding affinity of purified DLL3/CD3 bispecific constructs for recombinant human and cyno DLL3-ECD and Fc-fusion proteins of human and cyno CD3 εγ subunits was determined by Surface Plasmon Resonance (SPR), using a ProteOn XPR36 instrument (Bio-Rad). The running buffer and all dilutions (except where stated) were done in PBS-T-EDTA. The GLM sensor chip (Bio-Rad) was normalized and pre-conditioned as per the manufacturer's recommendations. The sensor chip was activated with equal mixture of EDC/s-NHS in the horizontal direction for 300 sec at a flow rate of 30 ul/min and immobilized with protein A/G (20 ug/ml in 10 mM acetate pH 4.5) in the horizontal direction for 300 sec at a flowrate of 30 ul/min resulting in ˜5000 RU of protein A/G on the surface. The sensor chip was deactivated with 1M ethanolamine HCl in the horizontal direction for 300 sec at a flowrate of 30 μl/min.
(§2) For binding kinetic determination to DLL3, bispecific molecules were captured individually on the protein A/G surface vertically for 250 sec at a flowrate of 25 μl/min. The baseline was stabilized by injecting PBS-T-EDTA for 60 sec at a flowrate of 40 μl/min horizontally. The analyte (hu DLL3 or cy DLL3) was injected horizontally over the captured antibody for 600 sec at a flowrate of 40 μl/min and a dissociation for 2700 sec.
(§3) The inter spot (interactions with sensor surface) and blank (PBS-T-EDTA) were subtracted from the raw data.

Cyno CD3 E+G HuFc-6xHis = target: T2, Cyno CD3 E+G HuFc-6xHis (cynomolgus monkey); test: SPR (ProteOn XPR36), CD3εγ-Fc amine-coupled, bispecific as analyte, equilibrium fit, Example 4A
T2 construct: also called cy CD3εγ-Fc; Recomb; Cyno CD3 εγ
Protocol: as §1
For binding kinetic determination to CD3, hu CD3εγ-Fc and cy CD3εγ-Fc (dissolved in pH 4.5 acetate) was immobilized directly onto the sensor surface through amine coupling for 140 sec at a flowrate of 30 μl/min vertically. The baseline was stabilized by injecting PBS-T-EDTA for 60 sec at a flowrate of 40 μl/min horizontally. The analyte (the bispecific molecule) was injected horizontally over the captured CD3εγ-Fc construct for 600 sec at a flowrate of 40 μl/min and a dissociation for 600 sec.
as §3

Cyno DLL3-His [2] = target: T1, Cyno DLL3-His; test: SPR (ProteOn XPR36), bispecific captured on protein A/G, DLL3 as analyte, Example 4A
Protocol: as §1, §2, §3

T2 sequence (chain, as listed by the source limits assumed): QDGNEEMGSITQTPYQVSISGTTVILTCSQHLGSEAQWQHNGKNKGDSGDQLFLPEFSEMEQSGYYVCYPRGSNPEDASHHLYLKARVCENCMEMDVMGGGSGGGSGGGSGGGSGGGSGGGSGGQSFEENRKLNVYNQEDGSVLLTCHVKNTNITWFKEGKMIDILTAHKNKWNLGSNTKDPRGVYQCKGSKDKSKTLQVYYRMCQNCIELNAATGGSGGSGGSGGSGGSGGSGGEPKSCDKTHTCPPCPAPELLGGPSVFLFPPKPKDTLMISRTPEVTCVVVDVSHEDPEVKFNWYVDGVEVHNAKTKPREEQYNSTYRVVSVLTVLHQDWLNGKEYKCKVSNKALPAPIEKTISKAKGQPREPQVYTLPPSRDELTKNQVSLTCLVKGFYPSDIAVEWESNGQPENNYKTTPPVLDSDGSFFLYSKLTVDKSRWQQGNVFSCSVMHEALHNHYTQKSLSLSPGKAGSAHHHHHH

B1: DLL3#3/CD3#2 (bispecific antibody, human IgG1, kappa, lambda, L234A L235A)
chain 1: DIQMTQSPSAMSASVGDRVTITCRASQGISNYLVWFQQKPGKAPKRLIYAVSSLYSGVPSRFSGSGSGTEFTLTISSLQPEDFATYYCLQHDSYPYTFGQGTKLEIKRTVAAPSVFIFPPSDEQLKSGTASVVCLLNNFYPREAKVQWKVDNALQSGNSQESVTEQDSKDSTYSLSSTLTLSKADYEKHKVYACEVTHQGLSSPVTKSFNRGECGGGGSEGKSSGSGSESKSTEGKSSGSGSESKSTGGGGSQVQLVQSGAEVKKPGASVKVSCKASGYTFTSYYVHWVRQAPGQGLEWMVIINPGGGTTSYAQKFLGRVTMTRDTSTNTVYMELKSLRSEDTAVYYCARGEAVTGNYFYYGMDVWGQGTTVTVSSASTKGPSVFPLAPSSKSTSGGTAALGCLVKDYFPEPVTVSWNSGALTSGVHTFPAVLQSSGLYSLSSVVTVPSSSLGTQTYICNVNHKPSNTKVDKRVEPKSCDKTHTCPPCPAPEAAGGPSVFLFPPKPKDTLMISRTPEVTCVVVDVSHEDPEVKFNWYVDGVEVHNAKTKPREEQYNSTYRVVSVLTVLHQDWLNGKEYKCKVSNKALPAPIEKTISKAKGQPREPQVYTLPPSREEMTKNQVSLWCLVKGFYPSDIAVEWESNGQPENNYKTTPPVLDSDGSFFLYSKLTVDKSRWQQGNVFSCSVMHEALHNHYTQKSLSLSPG
chain 2: EAVVTQEPSLTVSPGGTVTLTCRSSTGAVTTSNYANWVQEKPGQLPRGLIGGTNKRAPWVPARFSGSLLGGKAALTLSGAQPEDEAEYFCALWYSNLWVFGGGTKLTVLGQPKAAPSVTLFPPSSEELQANKATLVCLISDFYPGAVKVAWKADGSPVNTGVETTTPSKQSNNKYAASSYLSLTPEQWKSHRSYSCQVTHEGSTVEKTVAPAECSGGGGSEGKSSGSGSESKSTEGKSSGSGSESKSTGGGGSEVQLVESGGGLVQPGGSLKLSCAASGFTFNTYAMNWVRQAPGKGLEWVARIRSKYINYATYYADSVKDRFTISRDDSKNTAYLQMNNLKTEDTAVYYCVRHGNFGNSYVSWFAYWGQGTLVTVSAASTKGPSVFPLAPSSKSTSGGTAALGCLVKDYFPEPVTVSWNSGALTSGVHTFPAVLQSSGLYSLSSVVTVPSSSLGTQTYICNVNHKPSNTKVDKRVEPKSCDKTHTCPPCPAPEAAGGPSVFLFPPKPKDTLMISRTPEVTCVVVDVSHEDPEVKFNWYVDGVEVHNAKTKPREEQYNSTYRVVSVLTVLHQDWLNGKEYKCKVSNKALPAPIEKTISKAKGQPREPQVYTLPPSREEMTKNQVSLSCAVKGFYPSDIAVEWESNGQPENNYKTTPPVLDSDGSFFLVSKLTVDKSRWQQGNVFSCSVMHEALHNRFTQKSLSLSPG
notes: Heterodimer of one DLL3 chain and one CD3 chain (scFab-Fc, knob-in-hole)
- Affinity gap KD hu/cyno DLL3 (Cyno DLL3-His [1]): 1
- Kd (Cyno CD3 E+G HuFc-6xHis): 100 nM
- Kd (Cyno DLL3-His [2]): < 0.01 nM
